Target: endogenous bradykinin receptor of α7/5-HT3-SH-EP1 cells
Test: cell-based or functional assay

bradykinin (from UniProt P01042 381-389) (peptide)
increase in intracellular calcium (Calcium Green-1, FLIPR): 100 nM

Source: patent publication US20040132187A1
